From US20250262210A1 (TRUSTEES OF COLUMBIA UNIVERSITY IN THE CITY OF NEW YORK, published 2025) come the findings set out here.

In one experiment the target is T1, NCAPG2 (human, UniProt Q86XI2 1-1143, limits assumed).
T1 sequence (looked up): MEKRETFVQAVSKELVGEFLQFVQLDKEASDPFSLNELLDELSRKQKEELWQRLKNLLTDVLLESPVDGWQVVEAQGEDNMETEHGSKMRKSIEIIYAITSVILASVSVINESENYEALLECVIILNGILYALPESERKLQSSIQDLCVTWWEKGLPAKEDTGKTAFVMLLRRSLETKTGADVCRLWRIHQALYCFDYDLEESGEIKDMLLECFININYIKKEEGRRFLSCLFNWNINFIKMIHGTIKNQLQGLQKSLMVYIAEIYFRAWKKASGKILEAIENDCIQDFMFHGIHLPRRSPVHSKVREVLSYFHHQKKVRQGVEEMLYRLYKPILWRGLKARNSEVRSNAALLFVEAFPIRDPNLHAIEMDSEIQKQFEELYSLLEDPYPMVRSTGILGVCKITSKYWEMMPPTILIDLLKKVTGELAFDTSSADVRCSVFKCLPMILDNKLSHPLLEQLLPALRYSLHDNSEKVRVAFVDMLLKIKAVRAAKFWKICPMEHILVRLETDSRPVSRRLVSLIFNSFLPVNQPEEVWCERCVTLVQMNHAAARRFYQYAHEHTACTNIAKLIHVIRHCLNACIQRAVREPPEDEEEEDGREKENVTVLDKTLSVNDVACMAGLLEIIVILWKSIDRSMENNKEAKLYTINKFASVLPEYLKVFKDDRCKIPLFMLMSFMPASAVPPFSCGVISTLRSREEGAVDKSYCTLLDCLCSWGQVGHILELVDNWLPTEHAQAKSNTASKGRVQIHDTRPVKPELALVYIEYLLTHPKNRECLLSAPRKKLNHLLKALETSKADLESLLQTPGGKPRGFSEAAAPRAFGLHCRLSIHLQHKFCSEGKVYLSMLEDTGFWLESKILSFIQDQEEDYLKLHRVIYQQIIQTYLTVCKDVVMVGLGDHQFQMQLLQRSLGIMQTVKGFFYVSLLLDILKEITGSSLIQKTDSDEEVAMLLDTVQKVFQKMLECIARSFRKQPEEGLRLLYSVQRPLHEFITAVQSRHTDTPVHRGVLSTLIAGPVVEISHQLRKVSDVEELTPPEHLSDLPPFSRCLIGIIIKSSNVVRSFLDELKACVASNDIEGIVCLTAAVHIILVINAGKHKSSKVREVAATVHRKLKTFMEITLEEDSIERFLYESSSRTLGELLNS
Briefly: IP/MS, LZTR1 wild type-FLAG, U87. The method in brief:
(§1)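 Extracted peptides in 3% acetonitrile/0.1% formic acid ran on a 50 cm C18 column into an Orbitrap Fusion, with MaxQuant identification and spectral counting.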

In another experiment the target is T2, PPFIBP1 (human, UniProt Q86W92 1-1011, limits assumed).
T2 sequence (looked up): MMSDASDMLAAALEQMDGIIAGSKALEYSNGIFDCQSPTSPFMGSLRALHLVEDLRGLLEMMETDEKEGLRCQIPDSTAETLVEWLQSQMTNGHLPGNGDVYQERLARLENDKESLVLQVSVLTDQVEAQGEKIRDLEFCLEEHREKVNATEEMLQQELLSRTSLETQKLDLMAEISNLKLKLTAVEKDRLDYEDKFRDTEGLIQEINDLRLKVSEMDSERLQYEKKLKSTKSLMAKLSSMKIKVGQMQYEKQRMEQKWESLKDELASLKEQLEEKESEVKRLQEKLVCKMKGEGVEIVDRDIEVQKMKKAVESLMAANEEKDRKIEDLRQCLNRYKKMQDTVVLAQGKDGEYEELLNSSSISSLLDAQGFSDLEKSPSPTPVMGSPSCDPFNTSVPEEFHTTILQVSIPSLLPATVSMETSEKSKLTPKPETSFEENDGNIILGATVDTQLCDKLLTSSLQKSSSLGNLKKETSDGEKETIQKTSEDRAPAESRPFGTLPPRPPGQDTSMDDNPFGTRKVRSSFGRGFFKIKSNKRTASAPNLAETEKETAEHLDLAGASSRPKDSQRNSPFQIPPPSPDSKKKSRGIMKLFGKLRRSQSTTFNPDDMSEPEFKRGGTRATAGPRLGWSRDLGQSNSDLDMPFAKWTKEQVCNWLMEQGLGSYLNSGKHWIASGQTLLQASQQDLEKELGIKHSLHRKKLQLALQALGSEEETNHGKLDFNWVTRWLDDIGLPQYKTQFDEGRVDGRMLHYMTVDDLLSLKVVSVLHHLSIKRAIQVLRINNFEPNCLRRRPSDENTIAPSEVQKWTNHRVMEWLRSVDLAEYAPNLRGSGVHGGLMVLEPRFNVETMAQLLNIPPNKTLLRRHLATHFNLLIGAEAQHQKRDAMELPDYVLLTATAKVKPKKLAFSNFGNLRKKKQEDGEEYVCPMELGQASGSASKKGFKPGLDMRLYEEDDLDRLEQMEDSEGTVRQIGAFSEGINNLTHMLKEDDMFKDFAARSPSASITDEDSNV
Briefly: IP/MS, LZTR1 wild type-FLAG, U87. The method in brief:
as §1

B1: LZTR1-FLAG (other, human, UniProt Q8N653 1-840, looked up)
chain: MAGPGSTGGQIGAAALAGGARSKVAPSVDFDHSCSDSVEYLTLNFGPFETVHRWRRLPPCDEFVGARRSKHTVVAYKDAIYVFGGDNGKTMLNDLLRFDVKDCSWCRAFTTGTPPAPRYHHSAVVYGSSMFVFGGYTGDIYSNSNLKNKNDLFEYKFATGQWTEWKIEGRLPVARSAHGATVYSDKLWIFAGYDGNARLNDMWTIGLQDRELTCWEEVAQSGEIPPSCCNFPVAVCRDKMFVFSGQSGAKITNNLFQFEFKDKTWTRIPTEHLLRGSPPPPQRRYGHTMVAFDRHLYVFGGAADNTLPNELHCYDVDFQTWEVVQPSSDSEVGGAEVPERACASEEVPTLTYEERVGFKKSRDVFGLDFGTTSAKQPTQPASELPSGRLFHAAAVISDAMYIFGGTVDNNIRSGEMYRFQFSCYPKCTLHEDYGRLWESRQFCDVEFVLGEKEECVQGHVAIVTARSRWLRRKITQARERLAQKLEQEAAPVPREAPGVAAGGARPPLLHVAIREAEARPFEVLMQFLYTDKIKYPRKGHVEDVLLIMDVYKLALSFQLCRLEQLCRQYIEASVDLQNVLVVCESAARLQLSQLKEHCLNFVVKESHFNQVIMMKEFERLSSPLIVEIVRRKQQPPPRTPLDQPVDIGTSLIQDMKAYLEGAGAEFCDITLLLDGHPRPAHKAILAARSSYFEAMFRSFMPEDGQVNISIGEMVPSRQAFESMLRYIYYGEVNMPPEDSLYLFAAPYYYGFYNNRLQAYCKQNLEMNVTVQNVLQILEAADKTQALDMKRHCLHIIVHQFTKVSKLPTLRSLSQQLLLDIIDSLASHISDKQCAELGADI
notes: Expressed in HEK 293T, HeLa or U87 cells; used as cell lysate; also called LZTR1 wild type-FLAG; LZTR1 WT; not shown: FLAG tag at the C-terminus
B1: the binding result with NCAPG2 and in the experiment with PPFIBP1 was “binds” throughout.
